Assay results: patent US6461841B2, “L-amino acid oxidase from Rhodococcus species” (Degussa AG, priority 2000, dated 2002)

Legend:
[1] = pH dependence of the oxidation process; type: biochemical, Rhodococcus opacus; settings: 80 mM TEA-HCl buffer; for L-alanine, L-phenylalanine and L-leucine
Description: The reaction speed of the oxidation of L-amino acids to keto acids in the presence of the L-amino acid oxidase was studied as a function of the pH in the reaction solution. The test batch (200 μL) had the following composition: 10 mM L-amino acid, 25 U/mL peroxidase from horseradish, 80 mM buffer with different pH values and compositions, 0.2 mg/mL o-dianisidine, enzyme in limiting amount.

[2] = Enzyme test of purification fractions with L-ala (o-dianisidine/POX, 450 nm); type: biochemical, Rhodococcus opacus; settings: 0.2 M TEA-HCl, pH 7.6, 10 mM L-ala, 30° C.
Description: The cells were digested by means of wet grinding with glass beads. For this purpose, the moist bacteria mass (15 g) was suspended in 50 mM TEA-HCl buffer (pH 7.0), so that the concentration of the moist cell mass was 25%. The cell content substances were released from the ice-cooled suspension by means of mechanical digestion using a glass bead mill (SCP disintegrator, Innomed-Konsult AB, Sweden). For this purpose, the grinding container was filled with 100 mL glass beads (diameter 0.3 mm) and the cell suspension. Digestion was carried out at a stirring shaft speed of 3,000 rpm. The cooling mantle was filled with ice water before the start of the run.
15 g moist bacteria mass yielded 45 mL crude extract with a volume activity of 0.035 U/mL and a protein content of 9.4 mg/mL. From this, it can be calculated that approximately 150 units L-amino acid oxidase can be obtained from 10 L fermenter batch.
The enzyme can be purified by means of ion exchange chromatography, hydrophobic interaction chromatography, and chromatography with hydroxyl apatite as the column material. The crude extract was pumped onto a column (h 5.5×diameter 5 cm) packed with MarcoPrep High Q Support Material (Biorad, Hercules, USA), at a flow velocity of 0.2 mnL/min. The ion exchanger had previously been equilibrated with a buffer, which contained 50 mM TEA-HCl, pH 7.0. […]

[3] = Storage stability of the L-amino acid oxidase at 4° C.; type: physicochemical, Rhodococcus opacus; settings: several months; 0.7 mg/mL protein; 50 mM glycine NaOH buffer, pH 8.6; sterile conditions
[4] = Determination of the isoelectric point by isoelectric focusing; type: physicochemical, Rhodococcus opacus; settings: carrier ampholytes on agarose, pH range 4-6
Description: The isoelectric point of the L-amino acid oxidase was determined using isoelectric focusing with carrier ampholytes on agarose, in a pH range of 4-6. The pI is at pH 4.8. Carboanhydrase, β-lactoglobulin, trypsin inhibitor, glucose oxidase were used as marker proteins.

[5] = Storage stability of the L-amino acid oxidase as a function of the pH; type: physicochemical, Rhodococcus opacus; settings: after 100 hours in glycine NaOH buffer at pH 10 and 10.5; room temperature; 24 μg/mL protein
Description: c) Storage Stability of the L-amino Acid Oxidase as a Function of the pH L-amino acid oxidase was incubated in 0.2 M buffer of different compositions, at a protein concentration of 24, μg/mL, at room temperature. Afterwards, the residual activity was determined using 0.2 M TEA buffer, pH 7.6, and 10 mM L-ala. […] After 100 hours in glycine NaOH buffer, it was still possible to detect more than 90% activity at pH 10 and 10.5.

B1: L-amino acid oxidase: L-amino acid oxidase (L-AAO) from Rhodococcus opacus DSM 43250, SEQ ID NO: 2, homogeneously purified (protein, listed as Rhodococcus opacus)
chain: AGDLIGKVKGSHSVVVLGGGPAGLCSAFELQKAGYKVTVLEARTRPGGRVWTARGGSEETDLSGETQKCTFSEGHFYNVGATRIPQSHITLDYCRELGVEIQGFGNQNANTFVNYQSDTSLSGQSVTYRAAKADTFGYMSELLKKATDQGALDQVLSREDKDALSEFLSDFGDLSDDGRYLGSSRRGYDSEPGAGLNFGTEKKPFAMQEVIRSGIGRNFSFDFGYDQAMMMFTPVGGMDRIYYAFQDRIGTDNIVFGAEVTSMKNVSEGVTVEYTAGGSKKSITADYAICTIPPHLVGRLQNNLPGDVLTALKAAKPSSSGKLGIEYSRRWWETEDRIYGGASNTDKDISQIMFPYDHYNSDRGVVVAYYSSGKRQEAFESLTHRQRLAKAIAEGSEIHGEKYTRDISSSFSGSWRRTKYSESAWANWAGSGGSHGGAATPEYEKLLEPVDKIYFAGDHLSNAIAWQHGALTSARDVVTHIHERVAQEA
- pH optimum [1]: 8.5
- Spec. act. (U/mg) [2]: 4.6 U/mg
- Spec. act. (U/mg) ([2]; listed as Hydroxyl apatite pool): 4.61 U/mg
- storage stability at 4° C. [3]: without any loss of activity
- isoelectric point (pI) [4]: 4.8
- residual activity [5]: more than 90%
